# Source: US20220177886, “[…] AGAINST CLOSTRIDIUM […], COMPOSITIONS COMPRISING […] AGAINST CLOSTRIDIUM […] AND METHODS OF USING THE SAME” (Biovector, Inc., published 2022)
# T1: CotA-His6 (Clostridium difficile, UniProt Q186G8 SEQ:1-305)
# T1 sequence: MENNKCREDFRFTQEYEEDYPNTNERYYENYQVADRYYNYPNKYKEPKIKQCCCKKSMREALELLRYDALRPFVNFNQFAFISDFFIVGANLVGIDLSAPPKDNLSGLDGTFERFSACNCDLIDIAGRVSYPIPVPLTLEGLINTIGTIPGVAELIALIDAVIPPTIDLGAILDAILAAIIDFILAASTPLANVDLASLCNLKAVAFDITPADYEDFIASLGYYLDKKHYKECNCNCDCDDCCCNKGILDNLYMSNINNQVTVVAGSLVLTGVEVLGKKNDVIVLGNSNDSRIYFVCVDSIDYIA
# B1: CdeM Em2.1 (ssDNA)
# DNA: CTCAATGCCTTCCATTCACCTACCGAGCTAAGCGTTCGACTTAGGTCTGTACT
# B2: CotEC Chitinase D11.1 (ssDNA)
# DNA: AACTGCCTGGTAAATCGATGACCGCTGCCTCGCCTGAGTAATCATCGTACTATCCACAGGTC
# B3: CdeC D1 (ssDNA)
# DNA: CCAGTGTAGACTACTCAATGCCGTGGACTGGTCGGGTTTGGATTCGGCAGATGAATCAGTAGTACTATCCACAGGTCAACC
# B4: CdeM E2/Em2 (ssDNA)
# DNA: CCAGTGTAGACTACTCAATGCCTTCCATTCACCTACCGAGCTAAGCGTTCGACTTAGGTCTGTACTATCCACAGGTCAACC
# B5: CotE H2.1.1 (ssDNA)
# DNA: CTTGACCTTTGGAATGGGTAGGGAGGGAGGGATACTATCCACAGGTCAACC
# B6: CotE D2.2 (ssDNA)
# DNA: ACTACTCAATGCTCGACATTTCCGCCCCGACGGCCCTCCTAGTGATGGGGAGAGTAGA
# B7: CotE D2.1 (ssDNA)
# DNA: ACTACTCAATGCTCGACATTTCCGCCCCGACGGCCCTCCTAGTGAGGGGAGAGTAGA
# B8: CdeC D1.2 (ssDNA)
# DNA: ACTACTCAATGCCGTGGACTGGTCGGGTTTGGAATCGGCAGATGAATCAGTAGTAAA
# Tests used:
# [1] = biological target: CdeM (Clostridium difficile); experiment: pulldown; settings: tags: His-tagged (Ni-NTA)
# Description: (§1) The binding assay was performed by incubating fluorescently labeled aptamers (FAM) with the protein, and then spinning the tubes down in a microcentrifuge to remove unbound. The pellet was resuspended in selection buffer and spun down again. Bound aptamers were eluted by adding 6 M urea, and spinning again, retaining the supernatant. The aptamers were cleaned up with PCR cleanup columns and the fluorescence was read on a Tecan Sapphire II fluorometer. Excitation was at 497 nm, and emission was at 515 nm. The amount of fluorescence measured in the eluant was divided by the total amount of fluorescence of all fractions.
# (§2) D1 CdeC: The original aptamer sequence was SEQ ID NO: 6, which binds to the CdeC protein from C. difficile. […] Two aptamers, D1.1 (SEQ ID NO: 38) and D1.2 (SEQ ID NO: 39), were designed to stabilize the structure observed in the analysis of the original sequence (FIG. 11). The CdeC protein self-aggregates in aqueous solutions making surface plasmon resonance analysis difficult. The protein forms large aggregates that are insoluble. The protein aggregates were combined as suspensions with the aptamers in solutions, allowed to incubate at room temperature for 15 min, and then spun down in a microcentrifuge to remove unbound aptamer. The complexes were washed with the appropriate selection buffer (50 mM Tris pH 7.6, 2.5 mM MgCl₂, 2.5 mM CaCl₂, 85 mM KOAc, 0.01% Tween 20, 0.01% BSA) once and the spin process was repeated. Finally, the bound aptamer was eluted from the protein structures with the addition of 6M urea. The protein aggregates were spun again, and this time the supernatant containing the eluted aptamers was retained. The aptamers were synthesized with a FAM label on the 5′ end for this analysis.
# (§3) The CdeM protein is similar to the CdeC protein in that it forms aggregated balls when purified. An amount of protein equivalent to 1 E8 particles with 1 μM of each of the Em2, Em2.1 and Em2.2 aptamers in a total volume of 50 μL in the CdeM buffer was used. The mixture was allowed to incubate for 15 min at room temperature, then centrifuged. The supernatant was removed, and the pellet resuspended in CdeM buffer. This was centrifuged again and the wash process repeated once more.
# [2] = biological target: CotEC chitinase (rCotEC, AB45, aa381-712 of CotE) (Clostridium difficile); experiment: SPR; settings: tags: His-tagged (Ni-NTA)
# Description: (§4) For CotE D2, CotE H2 and CotEC chitinase, aptamers were spotted on a gold surface at a concentration of 5 μM in PBS at a volume of approximately 10 nL in triplicate. Negative aptamers of the same length as the positive aptamers were spotted in the same manner, also in triplicate. Protein was then injected over the chip at a volume of 200 μL, with a flow rate of 50 μL/min in a Horiba (OpenPlex) surface plasmon resonance imaging (SPRi) instrument. Resonance due to binding was obtained by subtracting total resonance on the negative sequences from total resonance on the positive sequences. Disassociation values were computed with the following equation: dx/dt˜−kd*x, wherein dx/dt is the derivative of resonance values as a function of time and x is the resonance value for any given time point. Association values were computed with the following equation: dx/dt˜ka*c*Rmax−(ka*c+kd)*x, where x is the resonance due to binding at specific time points, c is the concentration of injectant, and Rmax is the maximum resonance observed.
# (§5) Surface plasmon resonance imaging (SPRi) analysis of binding was performed with the various aptamers immobilized on a surface while the protein was flowed over at various concentrations.
# [3] = biological target: CdeC (Clostridium difficile); experiment: pulldown; settings: tags: His-tagged (Ni-NTA)
# Description: as §1, §2, §3
# [4] = biological target: T1, CotA-His6; experiment: SPR; 1.84E-08; protein immobilized; settings: tags: His6
# Description: as §1, with “For CotA C1, the protein was immobilized on a hydrogel chip with EDC-mediated conjugation between primary amines on the protein (side chains on residues) and carboxylic acid groups on the surface of the chip. A protein of similar size was immobilized in the same manner as a negative control. […] For CdeC D1, the protein was received as aggregated, insoluble balls of protein. The binding” for “The binding”
# [5] = biological target: HIV-1 p24 capsid protein (Human immunodeficiency virus 1, UniProt P04591 P04591:133-363); experiment: negative control protein; only aspecific fluorescence recovery, graphene oxide assay; settings: tags: E. coli derived; RayBiotech 212-10004; label: 5'-FAM
# Description: Once the quenched signal was stabilized, a fixed concentration of the target protein was added to the aptamer-GO mix (5 nM aptamer+0.5 ng/μL GO), and the recovery in quenched signal was recorded over time.
# As negative control, a non-target protein at the same concentration (HIV cap protein P24) was added to the aptamer-GO mix.
# Using 0.005% PEG in the buffer system, and 5 nM Fam-H2.1.2 with 0.5 ng/μL GO, the recovery of quenched signal was recorded after adding 50 nM of target protein (CotE) and 50 nM negative control protein (P24).
# [6] = biological target: CotE (rCotE LS25, N281-F712) (Clostridium difficile); experiment: SPR; settings: tags: His-tagged (Ni-NTA)
# Description: as §4, §5
# [7] = biological target: T1, CotA-His6; experiment: SPR; 5.21E-08; protein immobilized; settings: tags: His6
# Description: as §1, with “For CotA C1, the protein was immobilized on a hydrogel chip with EDC-mediated conjugation between primary amines on the protein (side chains on residues) and carboxylic acid groups on the surface of the chip. A protein of similar size was immobilized in the same manner as a negative control. […] For CdeC D1, the protein was received as aggregated, insoluble balls of protein. The binding” for “The binding”
# [8] = biological target: T1, CotA-His6; experiment: SPR; 7.82E-08; protein immobilized; settings: tags: His6; optimized potential G-quartet
# Description: as §1, with “For CotA C1, the protein was immobilized on a hydrogel chip with EDC-mediated conjugation between primary amines on the protein (side chains on residues) and carboxylic acid groups on the surface of the chip. A protein of similar size was immobilized in the same manner as a negative control. […] For CdeC D1, the protein was received as aggregated, insoluble balls of protein. The binding” for “The binding”
binder,measurement,setting,value
B1,binding result,[1],binds
B2,Kd,[2],295 nM
B3,binding result,[3],binds
ACTCAAGGCCGTGGACTGGTCGGGTTTGGATTCGGCAGATGAATCACT (ssDNA) [CotA C1.1],Kd,[4],18.4 nM
CTTGACCTTTGGAATGGGTGGGAGGGAGGGTATCCACAGGTCAACC (ssDNA) [FAM-CotE H2.1.2],binding result,[5],no binding
CTTGACCTTTGGAATGGGTGGGAGGGAGGGTATCCACAGGTCAACC (ssDNA) [CotE H2.1.2],Kd,[6],7.52 nM
AATGGGTGGGAGGGATGGGTACTA (ssDNA) [CotE H2.2],Kd,[6],> 250 nM
B4,binding result,[1],binds
ACTCAAGGCCGTGGACTGGTCGGGTTTGGAT (ssDNA) [CotA C1.2],Kd,[7],52.1 nM
CTTGACCTTTGGAATGGGTGGGAGGGATGGGTACTATCCACAGGTCAACC (ssDNA) [CotE H2.1],Kd,[6],17.5 nM
ACCCGTGGGACTGGGTCGGGTCGGG (ssDNA) [CotA C1.3],Kd,[8],78.2 nM
B5,Kd,[6],> 250 nM
B6,Kd,[6],207 nM
B7,Kd,[6],34.1 nM
B8,binding result,[3],binds
